The target in assay [1] is T1, PAR-2 (Homo sapiens, UniProt P55085).
T1 construct: endogenous in cells; host or cells: HUVEC or HT29 colon carcinoma cells
T1 sequence (P55085 26-397): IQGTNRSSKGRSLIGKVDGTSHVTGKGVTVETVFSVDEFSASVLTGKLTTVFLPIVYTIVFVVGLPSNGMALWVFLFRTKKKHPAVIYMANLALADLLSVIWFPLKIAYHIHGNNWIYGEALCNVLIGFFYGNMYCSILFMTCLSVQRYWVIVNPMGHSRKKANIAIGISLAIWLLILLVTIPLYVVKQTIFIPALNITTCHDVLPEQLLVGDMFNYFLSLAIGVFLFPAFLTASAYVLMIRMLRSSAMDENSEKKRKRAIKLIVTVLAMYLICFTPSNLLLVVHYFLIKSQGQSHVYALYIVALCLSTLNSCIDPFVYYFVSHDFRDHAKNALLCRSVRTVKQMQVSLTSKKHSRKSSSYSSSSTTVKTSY
In words: PAR signalling activity: calcium mobilization (Fluo-4) in response to peptides. Format: cell-based. Conditions: result in words, FIG. 4A-4C. As to the method: (§1) Confluent HUVECs or HT29 colon carcinoma cells were loaded for 30-60 minutes with the fluorescent dye Fluo-4. Final concentration 4 uM Fluo-4, 0.02% pluronic acid in physiological buffer. Cells were then washed with assay buffer, (HBSS containing 1 mM CaCl2, 1 mM MgSO4, and 2.5 mM probenecid). Cells were stimulated with various doses of PAR-2 activating peptide, PAR-1 activating peptide or ATP.
(§2) Fluorescence was monitored using a Wallac 1470 fluorescent plate reader. (See Al-ani et. al Journal of Pharmacology and Experimental Therapeutics 290:2, 753-760)
Calcium mobilization curves of the PAR-2 agonist SLIGKV (SEQ ID NO:25) compared with two truncated molecules LIGK (SEQ ID NO:1) and LIGKV (SEQ ID NO:2) are provided in FIG. 4A. […] Similar studies were performed on alanine substituted SLIGKV (SEQ ID NO:25) peptides (FIGS. 4B and 4C).

In assay [2] the target is T1, PAR-2. As to the kind of experiment: Inhibition of P2AP (SLIGKV)-stimulated PAR-2 signaling in cells pretreated with antagonist. Format: cell-based. Conditions: result in words; cells pretreated with the substance, then P2AP. As to the method: as §1, §2
In order to assess the potential of peptides selected above to block PAR-2 signaling, cells were pretreated with potential antagonist peptides for a predetermined amount of time and were subsequently treated with P2AP. Methods and protocols used were the same as those described in Example 1.

Assay [3] is described as follows: Arthritis in mice (anti-collagen II antibody plus LPS), foot thickness. It is filed as in vivo. Conditions: 200 mg/kg/day i.p. for 7 days, Balb/c mice, FIG. 19. As to the method:
On day 0, Balb/c mice were injected IV with the 1 -2 mg 1B11 monoclonal anti-collagen II antibody. On day 1, animals were injected i.p with 20 ug LPS, and treatment with PAR-2 antagonists (200 mg/kg/day i.p). for 7 days is initiated. After treatment was completed, disease is quantified by measuring the thickness (swelling) in both feet of the mouse. This was compared to untreated mice. (p<0.05 vs. vehicle control)

The subject of assay [4] is ATP signaling (G-protein coupled receptors). In words: Activation study with ATP on cells pretreated with antagonist. Format: cell-based. Conditions: cells pretreated with the substance. As to the method: as §1, §2
(§3) Both of these molecules signal through G-protein coupled receptors, and PAR-1 is very highly homologous to PAR-2, to the degree that the PAR-1 agonist peptide can signal through PAR-2 at high concentrations.

Assay [5] concerns the target T2, PAR-1 (Homo sapiens, UniProt P25116).
T2 construct: endogenous in cells; host or cells: HUVEC or HT29 colon carcinoma cells
T2 sequence (P25116 22-425): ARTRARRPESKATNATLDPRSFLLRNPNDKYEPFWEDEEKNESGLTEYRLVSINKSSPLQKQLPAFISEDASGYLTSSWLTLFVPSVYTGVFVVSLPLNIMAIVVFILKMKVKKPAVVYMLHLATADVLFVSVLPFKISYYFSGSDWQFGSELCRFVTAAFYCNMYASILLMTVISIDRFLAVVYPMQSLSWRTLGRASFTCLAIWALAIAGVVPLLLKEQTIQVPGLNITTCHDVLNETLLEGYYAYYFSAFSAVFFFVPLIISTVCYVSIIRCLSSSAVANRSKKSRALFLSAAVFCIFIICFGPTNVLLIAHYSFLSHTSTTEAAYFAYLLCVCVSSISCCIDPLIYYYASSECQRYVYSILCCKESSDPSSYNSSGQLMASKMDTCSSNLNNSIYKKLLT
As to the kind of experiment: Activation study with PAR-1 activation peptide SFLLRN on cells pretreated with antagonist. Format: cell-based. Conditions: cells pretreated with the substance. As to the method: as §1, §2, §3

Assay [6] relates to Lewis lung carcinoma. In words: Lewis lung carcinoma (LLC) experimental metastatic model. It is filed as in vivo, mice. Particulars: metastatic tumor growth studies, FIG. 16. As to the method:
In this tumor growth model, treatments were initiated on day 3 post inoculation, after tumor cells had homed to the lung, and started growing. […] At a dose of 4 mg/day tumor growth was inhibited by 75%. […] C57/B16 mice were injected i.v. with Lewis lung carcinoma. 3 days later, treatment of lung tumors was started with i.p. LIGK (SEQ ID NO:1) for 11 days.

Assay [7] deals with T3, Proteinase activated receptor-2 (PAR-2) (UniProt P55085 37-397, limits assumed).
T3 sequence (looked up): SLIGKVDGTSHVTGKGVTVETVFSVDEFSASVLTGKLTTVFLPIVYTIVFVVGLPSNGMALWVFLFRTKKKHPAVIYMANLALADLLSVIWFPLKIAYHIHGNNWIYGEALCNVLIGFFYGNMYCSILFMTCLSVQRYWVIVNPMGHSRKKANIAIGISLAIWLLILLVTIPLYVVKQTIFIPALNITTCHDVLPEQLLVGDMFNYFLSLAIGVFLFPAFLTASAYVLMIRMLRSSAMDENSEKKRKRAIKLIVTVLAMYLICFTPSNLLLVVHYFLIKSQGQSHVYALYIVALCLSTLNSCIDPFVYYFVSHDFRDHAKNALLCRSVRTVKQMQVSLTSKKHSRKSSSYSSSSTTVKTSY
As to the kind of experiment: cell-based or functional assay.

Results on six molecules are retold here after patent US20040266687A1, “Compositions and methods comprising protein activated receptor antagonists” (priority 2002, published 2004).

With “SLIAKV [alanine substituted SLIGKV peptide]”, in assay [1], the “calcium mobilization / signaling activity” value is on record as “robust signaling activity”.

In the case of LIGKV, in assay [2], the “antagonist activity on PAR-2 signaling” value is “demonstrated antagonist activity”. Besides, in assay [1], the “calcium mobilization / signaling activity” value is “Neither truncated molecule was able to induce calcium mobilization”.

As to “SLIGKA [alanine substituted SLIGKV peptide]”, in assay [1], the “calcium mobilization / signaling activity” value is “robust signaling activity”.

Turning to “SLIGKV (listed as Homo sapiens) [reference compound]”, the “calcium mobilization / signaling activity” value in assay [1] is “typical spike of calcium release followed by degradation of signal”.

As for `Br.CC(C)CC(=O)N1CCN(C(=O)CCCCCN)CC1` [ENMD-547], in assay [2], the “antagonist activity on PAR-2 signaling” value is “extremely potent inhibitor”. The “inflammation (arthritis, foot swelling)” value in assay [3] is recorded as “inhibited inflammation”. Also, in assay [4], the “inhibitory effect on signaling by ATP” value is given as “no inhibitory effects”. The “inhibitory effect on signaling by PAR-1 (activation peptide SFLLRN)” value in assay [5] is reported as “no inhibitory effects”. Moreover, in assay [6], the “antitumor activity relative to the parental LIGK molecule” value is recorded as “approximately five fold”.

B1: LIGK (SEQ ID NO:1) (peptide)
peptide: LIGK
Consider B1, for which the “IC50 of inhibition of PAR-2 signaling (calcium mobilization stimulated by SLIGKV)” value in assay [7] is under 0.5 mM.
